# T1: Extracellular domain (ECD) of the canine IL-4 receptor alpha-V5 epitope-AviTag-His Tag (canine)
# T1 construct: monomeric form isolated by size exclusion; also called canine IL-4RA-V5-Avi-His; canine IL-4RA
# T1 chain: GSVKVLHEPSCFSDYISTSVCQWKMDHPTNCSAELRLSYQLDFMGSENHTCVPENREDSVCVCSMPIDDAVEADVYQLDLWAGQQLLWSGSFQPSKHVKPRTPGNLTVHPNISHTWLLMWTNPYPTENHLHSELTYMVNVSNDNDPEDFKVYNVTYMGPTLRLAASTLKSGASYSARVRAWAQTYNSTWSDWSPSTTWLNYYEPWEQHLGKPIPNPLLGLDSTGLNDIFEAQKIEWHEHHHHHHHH
# Molecular target: T1, Extracellular domain (ECD) of the …
# Assay: SPR, Fab-SASA captured on BSA;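 also: biacore T200 SPR, Fab-SASA variants from E. coli conditioned medium captured on BSA-coated CM5 chip, canine IL-4RA injected 120 s then 420 s dissociation, 1:1 model fit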
Binder,Kd [nM],Ratio WT-kd/clone-kd,koff [s⁻¹],kon [M⁻¹ s⁻¹]
"TB640_005 Fab-SASA VH-V114Q (Fab, V domains shown, not shown: SASA tag then His-tag) VH: EVQLVESGGDLVKPGGSLRLSCVASGFTFRDYAMTWVRQAPGKGLQWVSLISGSGGKTYYADAVKGRFTISRDNAKNTLYLQMNSLRAEDTAVYYCAVDRLTKTIRPQYYGLWQWGQGTLVTVSS VL: DIVMTQTPLSLSVSPGETASISCRSSQSLLYSIGYNYLDWYLQKPGQSPQGLIYLGSKRASGVPDRFSGSGSGTDFTLRISRVEANDTGVYYCMQGLQSPLTFGQGTKLEIKR",7.16,1.41,0.000674,94100
"TB640_005 Fab-SASA VL-I33V (Fab, V domains shown, not shown: SASA tag then His-tag) VH: EVQLVESGGDLVKPGGSLRLSCVASGFTFRDYAMTWVRQAPGKGLQWVSLISGSGGKTYYADAVKGRFTISRDNAKNTLYLQMNSLRAEDTAVYYCAVDRLTKTIRPQYYGLWVWGQGTLVTVSS VL: DIVMTQTPLSLSVSPGETASISCRSSQSLLYSVGYNYLDWYLQKPGQSPQGLIYLGSKRASGVPDRFSGSGSGTDFTLRISRVEANDTGVYYCMQGLQSPLTFGQGTKLEIKR",12.7,0.94,0.00101,79800
"TB640_005 Fab-SASA VL-Q27T (Fab, V domains shown, not shown: SASA tag then His-tag) VH: EVQLVESGGDLVKPGGSLRLSCVASGFTFRDYAMTWVRQAPGKGLQWVSLISGSGGKTYYADAVKGRFTISRDNAKNTLYLQMNSLRAEDTAVYYCAVDRLTKTIRPQYYGLWVWGQGTLVTVSS VL: DIVMTQTPLSLSVSPGETASISCRSSTSLLYSIGYNYLDWYLQKPGQSPQGLIYLGSKRASGVPDRFSGSGSGTDFTLRISRVEANDTGVYYCMQGLQSPLTFGQGTKLEIKR",15.9,0.86,0.00111,69700
"TB640_005 Fab-SASA VL-Q27E (Fab, V domains shown, not shown: SASA tag then His-tag) VH: EVQLVESGGDLVKPGGSLRLSCVASGFTFRDYAMTWVRQAPGKGLQWVSLISGSGGKTYYADAVKGRFTISRDNAKNTLYLQMNSLRAEDTAVYYCAVDRLTKTIRPQYYGLWVWGQGTLVTVSS VL: DIVMTQTPLSLSVSPGETASISCRSSESLLYSIGYNYLDWYLQKPGQSPQGLIYLGSKRASGVPDRFSGSGSGTDFTLRISRVEANDTGVYYCMQGLQSPLTFGQGTKLEIKR",13.4,1.09,0.000873,65300
"TB640_005 Fab-SASA VL-I33A (Fab, V domains shown, not shown: SASA tag then His-tag) VH: EVQLVESGGDLVKPGGSLRLSCVASGFTFRDYAMTWVRQAPGKGLQWVSLISGSGGKTYYADAVKGRFTISRDNAKNTLYLQMNSLRAEDTAVYYCAVDRLTKTIRPQYYGLWVWGQGTLVTVSS VL: DIVMTQTPLSLSVSPGETASISCRSSQSLLYSAGYNYLDWYLQKPGQSPQGLIYLGSKRASGVPDRFSGSGSGTDFTLRISRVEANDTGVYYCMQGLQSPLTFGQGTKLEIKR",20.1,0.62,0.00153,75900
"TB640_005 Fab-SASA VH-Y110R (Fab, V domains shown, not shown: SASA tag then His-tag) VH: EVQLVESGGDLVKPGGSLRLSCVASGFTFRDYAMTWVRQAPGKGLQWVSLISGSGGKTYYADAVKGRFTISRDNAKNTLYLQMNSLRAEDTAVYYCAVDRLTKTIRPQYRGLWVWGQGTLVTVSS VL: DIVMTQTPLSLSVSPGETASISCRSSQSLLYSIGYNYLDWYLQKPGQSPQGLIYLGSKRASGVPDRFSGSGSGTDFTLRISRVEANDTGVYYCMQGLQSPLTFGQGTKLEIKR",9.6,0.62,0.00153,159000
"TB640_005 Fab-SASA VL-Q27L (Fab, V domains shown, not shown: SASA tag then His-tag) VH: EVQLVESGGDLVKPGGSLRLSCVASGFTFRDYAMTWVRQAPGKGLQWVSLISGSGGKTYYADAVKGRFTISRDNAKNTLYLQMNSLRAEDTAVYYCAVDRLTKTIRPQYYGLWVWGQGTLVTVSS VL: DIVMTQTPLSLSVSPGETASISCRSSLSLLYSIGYNYLDWYLQKPGQSPQGLIYLGSKRASGVPDRFSGSGSGTDFTLRISRVEANDTGVYYCMQGLQSPLTFGQGTKLEIKR",15.5,0.96,0.000996,64200
"TB640_005 Fab-SASA VL-A60L (Fab, V domains shown, not shown: SASA tag then His-tag) VH: EVQLVESGGDLVKPGGSLRLSCVASGFTFRDYAMTWVRQAPGKGLQWVSLISGSGGKTYYADAVKGRFTISRDNAKNTLYLQMNSLRAEDTAVYYCAVDRLTKTIRPQYYGLWVWGQGTLVTVSS VL: DIVMTQTPLSLSVSPGETASISCRSSQSLLYSIGYNYLDWYLQKPGQSPQGLIYLGSKRLSGVPDRFSGSGSGTDFTLRISRVEANDTGVYYCMQGLQSPLTFGQGTKLEIKR",5.41,0.98,0.000974,180000
"TB640_005 Fab-SASA VL-L55M (Fab, V domains shown, not shown: SASA tag then His-tag) VH: EVQLVESGGDLVKPGGSLRLSCVASGFTFRDYAMTWVRQAPGKGLQWVSLISGSGGKTYYADAVKGRFTISRDNAKNTLYLQMNSLRAEDTAVYYCAVDRLTKTIRPQYYGLWVWGQGTLVTVSS VL: DIVMTQTPLSLSVSPGETASISCRSSQSLLYSIGYNYLDWYLQKPGQSPQGLIYMGSKRASGVPDRFSGSGSGTDFTLRISRVEANDTGVYYCMQGLQSPLTFGQGTKLEIKR",7.97,1.42,0.000669,83900
"TB640_005 Fab-SASA VL-G96P (Fab, V domains shown, not shown: SASA tag then His-tag) VH: EVQLVESGGDLVKPGGSLRLSCVASGFTFRDYAMTWVRQAPGKGLQWVSLISGSGGKTYYADAVKGRFTISRDNAKNTLYLQMNSLRAEDTAVYYCAVDRLTKTIRPQYYGLWVWGQGTLVTVSS VL: DIVMTQTPLSLSVSPGETASISCRSSQSLLYSIGYNYLDWYLQKPGQSPQGLIYLGSKRASGVPDRFSGSGSGTDFTLRISRVEANDTGVYYCMQPLQSPLTFGQGTKLEIKR",3.27,2.66,0.000358,109000
"TB640_005 Fab-SASA VL-L101N (Fab, V domains shown, not shown: SASA tag then His-tag) VH: EVQLVESGGDLVKPGGSLRLSCVASGFTFRDYAMTWVRQAPGKGLQWVSLISGSGGKTYYADAVKGRFTISRDNAKNTLYLQMNSLRAEDTAVYYCAVDRLTKTIRPQYYGLWVWGQGTLVTVSS VL: DIVMTQTPLSLSVSPGETASISCRSSQSLLYSIGYNYLDWYLQKPGQSPQGLIYLGSKRASGVPDRFSGSGSGTDFTLRISRVEANDTGVYYCMQGLQSPNTFGQGTKLEIKR",9.76,0.3,0.00321,328000
"TB640_005 Fab-SASA VL-A60M (Fab, V domains shown, not shown: SASA tag then His-tag) VH: EVQLVESGGDLVKPGGSLRLSCVASGFTFRDYAMTWVRQAPGKGLQWVSLISGSGGKTYYADAVKGRFTISRDNAKNTLYLQMNSLRAEDTAVYYCAVDRLTKTIRPQYYGLWVWGQGTLVTVSS VL: DIVMTQTPLSLSVSPGETASISCRSSQSLLYSIGYNYLDWYLQKPGQSPQGLIYLGSKRMSGVPDRFSGSGSGTDFTLRISRVEANDTGVYYCMQGLQSPLTFGQGTKLEIKR",4.52,1.12,0.00085,188000
"TB640_005 Fab-SASA VL-Q27H (Fab, V domains shown, not shown: SASA tag then His-tag) VH: EVQLVESGGDLVKPGGSLRLSCVASGFTFRDYAMTWVRQAPGKGLQWVSLISGSGGKTYYADAVKGRFTISRDNAKNTLYLQMNSLRAEDTAVYYCAVDRLTKTIRPQYYGLWVWGQGTLVTVSS VL: DIVMTQTPLSLSVSPGETASISCRSSHSLLYSIGYNYLDWYLQKPGQSPQGLIYLGSKRASGVPDRFSGSGSGTDFTLRISRVEANDTGVYYCMQGLQSPLTFGQGTKLEIKR",14.9,0.97,0.000979,65700
"TB640_005 Fab-SASA VL-L30A (Fab, V domains shown, not shown: SASA tag then His-tag) VH: EVQLVESGGDLVKPGGSLRLSCVASGFTFRDYAMTWVRQAPGKGLQWVSLISGSGGKTYYADAVKGRFTISRDNAKNTLYLQMNSLRAEDTAVYYCAVDRLTKTIRPQYYGLWVWGQGTLVTVSS VL: DIVMTQTPLSLSVSPGETASISCRSSQSLAYSIGYNYLDWYLQKPGQSPQGLIYLGSKRASGVPDRFSGSGSGTDFTLRISRVEANDTGVYYCMQGLQSPLTFGQGTKLEIKR",27.3,0.51,0.00187,68600
"TB640_005 Fab-SASA VL-I33P (Fab, V domains shown, not shown: SASA tag then His-tag) VH: EVQLVESGGDLVKPGGSLRLSCVASGFTFRDYAMTWVRQAPGKGLQWVSLISGSGGKTYYADAVKGRFTISRDNAKNTLYLQMNSLRAEDTAVYYCAVDRLTKTIRPQYYGLWVWGQGTLVTVSS VL: DIVMTQTPLSLSVSPGETASISCRSSQSLLYSPGYNYLDWYLQKPGQSPQGLIYLGSKRASGVPDRFSGSGSGTDFTLRISRVEANDTGVYYCMQGLQSPLTFGQGTKLEIKR",12.5,0.7,0.00137,109000
"TB640_005 Fab-SASA VH-Y110L (Fab, V domains shown, not shown: SASA tag then His-tag) VH: EVQLVESGGDLVKPGGSLRLSCVASGFTFRDYAMTWVRQAPGKGLQWVSLISGSGGKTYYADAVKGRFTISRDNAKNTLYLQMNSLRAEDTAVYYCAVDRLTKTIRPQYLGLWVWGQGTLVTVSS VL: DIVMTQTPLSLSVSPGETASISCRSSQSLLYSIGYNYLDWYLQKPGQSPQGLIYLGSKRASGVPDRFSGSGSGTDFTLRISRVEANDTGVYYCMQGLQSPLTFGQGTKLEIKR",6.65,0.71,0.00135,202000
"TB640_005 Fab-SASA VL-L30T (Fab, V domains shown, not shown: SASA tag then His-tag) VH: EVQLVESGGDLVKPGGSLRLSCVASGFTFRDYAMTWVRQAPGKGLQWVSLISGSGGKTYYADAVKGRFTISRDNAKNTLYLQMNSLRAEDTAVYYCAVDRLTKTIRPQYYGLWVWGQGTLVTVSS VL: DIVMTQTPLSLSVSPGETASISCRSSQSLTYSIGYNYLDWYLQKPGQSPQGLIYLGSKRASGVPDRFSGSGSGTDFTLRISRVEANDTGVYYCMQGLQSPLTFGQGTKLEIKR",11.8,1.54,0.000618,52200
